Test results as given in patent publication US20220193133A1 (CENTURY THERAPEUTICS, published 2022).

How the values were obtained:
[1] = biological target: T1, D04-his tagged VHH (humanized D04); experiment: Octet (BLI) specificity analysis, sample vs analyte
T1 construct: also called LysoD04.His; D04 his-tagged protein

[2] = biological target: T2, D04-Fc (humanized D04 VHH Fc fusion); experiment: as above
T2 construct: also called LysoD04.Fc; not shown: Fc

[3] = biological target: total human IgG from sera; experiment: as above
[4] = biological target: Fc-y fragment; experiment: as above
[5] = biological target: PROT939 (an off target VHH-fc soluble); experiment: as above
[6] = biological target: the molecule itself; experiment: as above
[7] = biological target: T3, B11-his tagged VHH (humanized B11); experiment: Octet (BLI), anti-idiotype VHH-Fc vs his-tagged VHH; table title prints D04-his, its footnote prints B11-his
T3 construct: also called B11-his protein; B11 his-tagged protein

[8] = biological target: T1, D04-his tagged VHH (humanized D04); experiment: Octet (BLI), anti-idiotype VHH-Fc vs his-tagged VHH; table title prints B11-his, paragraph 353 ties these values to D04
[9] = biological target: T4, humanized B11 VHH CAR (hyLYSO_CW_P01_B11) on Nurkat cells; experiment: flow cytometry, VHH-Fc on CAR Nurkat cells, 3-fold dilutions 50 to 0.02 nM, anti-Fc APC, %Fc positive cells
T4 construct: also called B11 (p1649); P1649
Description: […] Fc-fusion protein was detected via anti-Fc APC, and the percentage of cells that were positive for this detection method are shown. […] Controls include (i) no VHH-Fc added and (ii) the anti-VHH cocktail detection reagent (far right). The samples shown in the graphs for each protein appear in the order as specified in the legend.

[10] = biological target: T5, B11 protein (humanized B11 VHH as ELISA antigen); experiment: periplasmic extract ELISA, absorbance 450 nm, single point
T5 construct: Panning used B11-Fc; the ELISA legend says only 'B11 protein'

[11] = biological target: T6, D04 protein (humanized D04 VHH as ELISA antigen); experiment: as above
T6 construct: Panning used biotinylated D04-Fc; the ELISA legend says only 'D04 protein'

Row | Response [1] | Response [2] | Response [3] | Response [4] | Response [5] | Response [7] | Kd [8] [nM] | Response [8] | koff [8] [s⁻¹] | kon [8] [M⁻¹ s⁻¹] | binding result [9] | binding result [10] | binding result [11] | Binder | Response [6]
1 | 0.0923 | 2.18 | -0.0338 | -0.0261 | -0.024 | -0.0183 | 72.3 | 0.289 | 0.0425 | 588000 | no binding (tested: 50 nM) |  |  | AMD88 (huD04_CNTY1_D10 anti-idiotype VHH IgG1-Fc fusion) (Fc fusion, not shown: IgG1 Fc) EVQLLESGGGLVQPGGSLRLSCAASGRTSSNYVIGWYRQAPGKEREFVSAISGGGSTYYADSVKGRFTISRDNSKNTLYLQMNSLRAEDTAVYYCATRIYTARGAGDYWGQGTQVTVSS | 0.149
2 |  |  |  |  |  |  |  |  |  |  |  | binds | no binding | huB11_CNTY1_B11 anti-idiotype VHH (periplasmic extract) (VHH, Screened as periplasmic extract; also called VHH of AMD76) VHH: EVQLLESGGGLVQPGGSLRLSCAASGLAFSSYAMGWYRQAPGKEREFVSVISGTGETLYADSVKGRFTISRDNSKNTLYLQMNSLRAEDTAVYYCAADVWSGYEYDYWGQGTQVTVSS | 
